Consider one protein from paper PMC3458870 (PLoS ONE, 2012).

By stoichiometry N is commonly meant the number of molecules, sites or subunits per partner or assembly.

This series deals with the molecule itself. The series can be described thus: SEC. For orientation: In gel filtration, larger molecules generally elute earlier.

B1: truncated form of human PAH including the catalytic domain, hPAH(Gly103-Gln428) (domain or fragment)
chain: GATVHELSRDKKKDTVPWFPRTIQELDRFANQILSYGAELDADHPGFKDPVYRARRKQFADIAYNYRHGQPIPRVEYMEEEKKTWGTVFKTLKSLYKTHACYEYNHIFPLLEKYCGFHEDNIPQLEDVSQFLQTCTGFRLRPVAGLLSSRDFLGGLAFRVFHCTQYIRHGSKPMYTPEPDICHELLGHVPLFSDRSFAQFSQEIGLASLGAPDEYIEKLATIYWFTVEFGLCKQGDSIKAYGAGLLSSFGELQYCLSEKPKLLPLELEKTAIQNYTVTEFQPLYYVAESFNDAKEKVRNFAATIPRPFSVRYDPYTQRIEVLDNTQ
Turning to B1, the “stoichiometry N” value amounted to 2.
